Like-named read-outs stand apart in the source and are kept apart here.
Legend:
SN = SN (Staphylococcus aureus, UniProt P00644); conditions: cited from earlier work
[1] = molecular target: T1, Staphylococcal nuclease (SN) (Staphylococcus aureus, UniProt P00644, L118C/Q162N); assay type: binding; conditions: 35.3 °C
T1 construct: made in house; host or cells: cell-free TnT, E. coli BL21 Star (DE3) extract
Protocol: (§1) The rate of labeling of internal cysteine residues was measured by reacting 30-50 μL of ˜0.1 μM protein sample (i.e., ˜3-5 picomoles of protein) with excess IAM-biotin (1 mM unless otherwise stated) at constant temperature (25 mM MOPS, 100 mM KCl and pH 7.6). 5 μL aliquots were removed at fixed time intervals and quenched by addition of 2 μL 2M β-mercaptoethanol (Sigma; M6250). Following addition of 5 μL LDS-buffer (Invitrogen; NP0007) and heating for 2 min at 85° C., (un)labeled protein species were resolved by SDS-PAGE (Novex 4-12% Bis-Tris Gels; Invitrogen; NP0321). […] For the experiment shown in FIG. 8A, ecRBP variant L62C was modified with 1 mM IAM-biotin at 47.1° C., pH 7.6. […] Streptavidin was used to alter the electrophoretic mobility of the labeled protein (Streptavidin bands indicated by a, b, and c). […] Error bars represent the estimated uncertainty of the integrated band intensities (˜2%). For the experiment shown in FIG. 8B, SN variant L36C was labeled with IAM-biotin at 35.3° C., pH 7.6. […] At 29.3° C., 26.3° C. and 23.3° C., kint and klabel were manipulated by increasing the concentration of IAM-biotin from 1 mM to 3.16 mM.
(§2) The modulation of protein stability by binding of metals, ligands, activators, inhibitors, substrates, nucleic acid or other proteins can be used to measure binding affinities within a GUWO. For a protein with a single binding site, the free energy of ligand binding was described by
(§3) [formula] where P was the binding polynomial, [L] the total ligand concentration, and KD the apparent dissociation constant of the ligand. For proteins with multiple ligand-binding sites, P was expanded as described in Equations 21-36 below.
(§4) By thermodynamic linkage, any change in ΔGU caused predominantly by ligand binding (Scheme 1) is ΔGbind=ΔΔ^LGU=Δ^LGU−Δ^apoGU [20] where Δ^LGU and Δ^apoGU were the stability of the protein in the presence of absence of ligand respectively. Equation 20 was used to obtain apparent KD values from either the ligand dependence of ΔΔGU (by curve fitting), or from a single measurement of ΔΔGU.

[2] = molecular target: T2, Staphylococcal nuclease (SN) (Staphylococcus aureus, UniProt P00644); assay type: binding; conditions: SN/L36C; 35.3 °C; from single ΔΔGU measurement; read-out: apparent KD (binary complex)
T2 construct: made in house; host or cells: cell-free TnT, E. coli BL21 Star (DE3) extract
Protocol: as §1, §2, §3, §4

[3] = Quantitative cysteine reactivity (QCR): protein stability, temperature dependence of ΔGU; assay type: physicochemical; conditions: for ΔHm: Gibbs-Helmholtz fit, ΔCp assigned a priori; for ΔG°U at 25° C.: ecRBP mutants, Gibbs-Helmholtz extrapolation; for apparent Tm below wild-type: versus literature wild-type Tm
Protocol: as §1
Following staining with GelCode™ Blue Stain reagent (Thermo Scientific; 24592), gel images were digitized and band intensities quantified by densitometry (ImageJ; Rasband (1997-2009), U.S. National Institutes of Health, Bethesda, Md.) and fit to a single exponential to derive klabel. When designing QCR experiments, consideration was given to the degradation of the iodoacetyl moiety of IAM-biotin, which was dependent on time, exposure to light, and temperature. […] At higher temperatures the degradation of IAM-biotin is taken into account, primarily by limiting the labeling reaction to less than ˜90 min.
[formula] applies only if the labeling conditions were fully in the EX2 limit, when kclose>>kint. As labeling reagent concentration increases, kint increases concomitantly and eventually kint will become equal to or greater than kclose. Under these conditions, the observed labeling rate was determined solely by kopen and klabel and was no longer a measure of stability. The reagent concentration and environmental conditions (i.e. pH and temperature) at which EX2 conditions no longer apply varies according to the (un)folding kinetics of the protein. A simple test of reaction mechanism was to change reagent concentration and remeasure the kinetics: EX2 conditions were satisfied if the change in the observed labeling rate was proportional to the change in reagent concentration (see FIG. 9).
The QCR experiment was designed to determine the Gibbs free energy of global protein unfolding by measuring the reactivity of wild-type or mutant cysteines buried in a hydrophobic core. […] These mutant proteins were produced in 200 μL batches by cell-free coupled transcription and translation in E. coli extract. […] This approach uses approximately 0.5 picomoles (˜10 nanograms) of protein per time point and can use a variety of thiol-reactive reagents that alter electrophoretic mobility or were highly fluorescent.
The QCR method exploits the conformational fluctuations of a protein to measure conformational free energy. Cysteines that were protected in the folded ensemble can be modified by thiol-reactive probe only by complete exposure to bulk solvent by transient unfolding reactions, as described by a two-step reaction scheme:
Unfolding free energies (ΔGU) can be determined under EX2 conditions (kclose>>kint) by measuring klabel, the rate constant for labeling a protected cysteine at a specified concentration of thiol probe [P]

[4] = molecular target: T3, E. coli ribose-binding protein (ecRBP) (Escherichia coli, UniProt P02925, L86C/T28W); experiment: biochemical; conditions: ecRBP.L62C, 48.9 °C; for kex: 1.00E−03 M IAM
T3 construct: made in house; host or cells: cell-free TnT, E. coli BL21 Star (DE3) extract
T3 sequence (P02925 other isoform, or with tags, fused parts or gaps T28W/L86C): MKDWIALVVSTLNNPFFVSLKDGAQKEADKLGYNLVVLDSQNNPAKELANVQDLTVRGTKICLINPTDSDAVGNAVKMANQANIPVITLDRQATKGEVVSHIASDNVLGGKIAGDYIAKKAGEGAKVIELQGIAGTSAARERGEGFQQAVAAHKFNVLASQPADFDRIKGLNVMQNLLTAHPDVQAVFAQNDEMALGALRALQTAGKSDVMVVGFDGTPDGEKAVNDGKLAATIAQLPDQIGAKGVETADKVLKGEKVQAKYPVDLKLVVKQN
Protocol: as §1, §2, §3, §4

[5] = literature; cited from earlier work
[6] = molecular target: T4, E. coli ribose-binding protein (ecRBP) (Escherichia coli, UniProt P02925, A213C/T28W); experiment: biochemical; conditions: ecRBP.A188C, 54.6 °C; for kex: 1.00E−03 M IAM
T4 construct: made in house; host or cells: cell-free TnT, E. coli BL21 Star (DE3) extract
T4 sequence (P02925 other isoform, or with tags, fused parts or gaps T28W/A213C): as the sequence (P02925 other isoform, or with tags, fused parts or gaps T28W/L86C) above, with C62L, A189C counted along it
Protocol: as §1, §2, §3, §4

[7] = Ca2+ and pdTp synergistic, read-out: affinity for SN in the presence of the other ligand

For [Ca+2] [Ca^2+], the Kd (SN; [7]) is listed as ~2000 nM, the Kd (SN; Serpersu et al. 1986, read-out: affinity for SN, ligand by itself) is listed as ~500000 nM and the “increase in stability (ΔΔGU) of SN/L36C” value ([1]; 1 mM Ca2+) is listed as 0.6 ± 0.2 kcal/mol. It also gave a Kd [2] of 600 ± 200 µM.

In the case of Cc1cn([C@H]2C[C@H](OP(=O)(O)O)[C@@H](COP(=O)(O)O)O2)c(=O)[nH]c1=O [pdTp], the Kd (SN; [7]) is listed as ~2000 nM, the “increase in stability (ΔΔGU) of SN/L36C” value ([1]; 50 μM pdTp) is listed as 0.7 ± 0.2 kcal/mol and the Kd [2] is listed as 23 ± 4 µM.

B1: ecRBP.L62C: E. coli ribose-binding protein variant L62C (SEQ ID NO:12) (protein, listed as Escherichia coli)
chain: MKDTIALVVSTLNNPFFVSLKDGAQKEADKLGYNLVVLDSQNNPAKELANVQDLTVRGTKICLINPTDSDAVGNAVKMANQANIPVITLDRQATKGEVVSHIASDNVLGGKIAGDYIAKKAGEGAKVIELQGIAGTSAARERGEGFQQAVAAHKFNVLASQPADFDRIKGLNVMQNLLTAHPDVQAVFAQNDEMALGALRALQTAGKSDVMVVGFDGTPDGEKAVNDGKLAATIAQLPDQIGAKGVETADKVLKGEKVQAKYPVDLKLVVKQNGGSHHHHHH
In the case of B1, the “apparent Tm” value ([3]; Gibbs-Helmholtz fit of QCR ΔGU(T)) is reported as 54±1 °C, the ΔHm [3] is reported as 81 ± 2 kcal/mol and the “ΔG°U at 25° C.” value [3] is reported as 3.2 ± 0.1 kcal/mol. The “apparent Tm below wild-type” value [3] was ~8 °C, the ΔG ([4]; [Ligand] 0 μM) was 1.0 kcal/mol and the ΔΔG ([4]; [Ligand] 0 μM) was 0 kcal/mol. The kex ([4]; [Ligand] 0 μM) was 0.0099 s⁻¹, the ΔG ([4]; [Ligand] 1.5 μM (ribose)) was 1.5 kcal/mol and the ΔΔG ([4]; [Ligand] 1.5 μM (ribose)) was 0.5 kcal/mol. For the same molecule, the kex ([4]; [Ligand] 1.5 μM (ribose)) was 0.0051 s⁻¹, the ΔG ([4]; [Ligand] 3 μM (ribose)) was 1.8 kcal/mol and the ΔΔG ([4]; [Ligand] 3 μM (ribose)) was 0.7 kcal/mol. It also gave a kex ([4]; [Ligand] 3 μM (ribose)) of 0.0036 s⁻¹, a ΔG ([4]; [Ligand] 6 μM (ribose)) of 2.2 kcal/mol and a ΔΔG ([4]; [Ligand] 6 μM (ribose)) of 1.2 kcal/mol. The kex ([4]; [Ligand] 6 μM (ribose)) was 0.00019 s⁻¹, the ΔG ([4]; [Ligand] 12 μM (ribose)) was 2.6 kcal/mol and the ΔΔG ([4]; [Ligand] 12 μM (ribose)) was 1.5 kcal/mol. For the same molecule, the kex ([4]; [Ligand] 12 μM (ribose)) was 0.00011 s⁻¹, the ΔG ([4]; [Ligand] 24 μM (ribose)) was 2.7 kcal/mol and the ΔΔG ([4]; [Ligand] 24 μM (ribose)) was 1.6 kcal/mol. It also gave a kex ([4]; [Ligand] 24 μM (ribose)) of 0.00091 s⁻¹.

B2: wild-type ecRBP: wild-type E. coli ribose-binding protein (protein, listed as Escherichia coli)
chain: MKDTIALVVSTLNNPFFVSLKDGAQKEADKLGYNLVVLDSQNNPAKELANVQDLTVRGTKILLINPTDSDAVGNAVKMANQANIPVITLDRQATKGEVVSHIASDNVLGGKIAGDYIAKKAGEGAKVIELQGIAGTSAARERGEGFQQAVAAHKFNVLASQPADFDRIKGLNVMQNLLTAHPDVQAVFAQNDEMALGALRALQTAGKSDVMVVGFDGTPDGEKAVNDGKLAATIAQLPDQIGAKGVETADKVLKGEKVQAKYPVDLKLVVKQNGGSHHHHHH
In the case of B2, the Tm of wild-type [5] is given as 62.6 °C.

B3: ecRBP.A188C (protein, UniProt P02925 26-296, looked up, variant A188C)
Ribose import binding protein …: KDTIALVVSTLNNPFFVSLKDGAQKEADKLGYNLVVLDSQNNPAKELANVQDLTVRGTKILLINPTDSDAVGNAVKMANQANIPVITLDRQATKGEVVSHIASDNVLGGKIAGDYIAKKAGEGAKVIELQGIAGTSAARERGEGFQQAVAAHKFNVLASQPADFDRIKGLNVMQNLLTAHPDVQAVFCQNDEMALGALRALQTAGKSDVMVVGFDGTPDGEKAVNDGKLAATIAQLPDQIGAKGVETADKVLKGEKVQAKYPVDLKLVVKQ
With B3 the ΔHm [3] was 91 ± 4 kcal/mol, the “ΔG°U at 25° C.” value [3] was 4.1 ± 0.1 kcal/mol and the “apparent Tm below wild-type” value [3] was ~8 °C. For the same molecule, the ΔG ([6]; [Ligand] 0 μM) was 0.8 kcal/mol, the ΔΔG ([6]; [Ligand] 0 μM) was 0 kcal/mol and the kex ([6]; [Ligand] 0 μM) was 0.00217 s⁻¹. It also gave a ΔG ([6]; [Ligand] 1.5 μM (ribose)) of 1.1 kcal/mol, a ΔΔG ([6]; [Ligand] 1.5 μM (ribose)) of 0.3 kcal/mol and a kex ([6]; [Ligand] 1.5 μM (ribose)) of 0.00141 s⁻¹. It also gave a ΔG ([6]; [Ligand] 3 μM (ribose)) of 1.4 kcal/mol, a ΔΔG ([6]; [Ligand] 3 μM (ribose)) of 0.6 kcal/mol and a kex ([6]; [Ligand] 3 μM (ribose)) of 0.00097 s⁻¹. For the same molecule, the ΔG ([6]; [Ligand] 6 μM (ribose)) was 1.6 kcal/mol, the ΔΔG ([6]; [Ligand] 6 μM (ribose)) was 0.8 kcal/mol and the kex ([6]; [Ligand] 6 μM (ribose)) was 0.00073 s⁻¹. The ΔG ([6]; [Ligand] 12 μM (ribose)) was 2.2 kcal/mol, the ΔΔG ([6]; [Ligand] 12 μM (ribose)) was 1.4 kcal/mol and the kex ([6]; [Ligand] 12 μM (ribose)) was 0.00032 s⁻¹. The ΔG ([6]; [Ligand] 24 μM (ribose)) was 2.5 kcal/mol, the ΔΔG ([6]; [Ligand] 24 μM (ribose)) was 1.7 kcal/mol and the kex ([6]; [Ligand] 24 μM (ribose)) was 0.00019 s⁻¹.
